Numbering of substitutions follows the chain as printed. In names and notes the source's numbering stands. One block for each binder: values may come before it.
Tests used:
[1] = biological target: T1, monkey FcRn (monkey FcRn-His tag with monkey β2 microglobulin) (cynomolgus monkey, UniProt Q8SPV9 24-297; Q8SPW0 21-119); experiment: SPR pH 6, FcRn-His captured by anti-His, antibody analyte
T1 construct: also called cyno FcRn; cynomolgus monkey FcRn extracellular domain His-tag body

[2] = biological target: T2, human FcRn (human FcRn-His tag with human β2 microglobulin) (human, UniProt P55899 24-297; P61769 21-119); experiment: as above
T2 construct: also called h FcRn; hFcRn

[3] = biological target: T3, Recombinant Human FGF-23 (R&D Systems, Cat No. 2604-FG-025/CF) (human, UniProt Q9GZV9 25-251); experiment: SPR, antibody captured by anti-human IgG, FGF-23 analyte
T3 construct: Bought protein
T3 sequence (looked up): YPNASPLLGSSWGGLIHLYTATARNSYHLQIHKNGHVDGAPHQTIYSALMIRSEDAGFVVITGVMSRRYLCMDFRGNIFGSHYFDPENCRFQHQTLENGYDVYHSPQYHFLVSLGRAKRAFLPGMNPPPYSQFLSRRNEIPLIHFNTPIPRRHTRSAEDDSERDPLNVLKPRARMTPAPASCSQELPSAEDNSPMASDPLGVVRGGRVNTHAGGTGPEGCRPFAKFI

[4] = biological target: T3, Recombinant Human FGF-23 (R&D Systems, …); experiment: cell-based or functional assay

T1 sequence (Q8SPV9 other isoform, or with tags, fused parts or gaps limits assumed, chain 1 of 2): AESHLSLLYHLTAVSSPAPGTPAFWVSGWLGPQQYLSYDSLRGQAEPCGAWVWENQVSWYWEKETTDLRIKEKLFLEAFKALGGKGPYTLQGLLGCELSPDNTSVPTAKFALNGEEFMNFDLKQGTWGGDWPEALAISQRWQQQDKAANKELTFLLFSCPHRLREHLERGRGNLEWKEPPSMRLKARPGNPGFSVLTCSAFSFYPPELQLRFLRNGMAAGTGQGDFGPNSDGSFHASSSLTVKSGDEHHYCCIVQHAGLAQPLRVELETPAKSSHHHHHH
T1 sequence (Q8SPW0 21-119 limits assumed, chain 2 of 2): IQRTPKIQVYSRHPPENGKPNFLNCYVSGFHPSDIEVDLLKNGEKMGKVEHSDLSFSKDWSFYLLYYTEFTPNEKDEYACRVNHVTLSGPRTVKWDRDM

B1: antibody A_G2AAAS_A (antibody)
chain 1: QVQLVQSGAEVKKPGASVKVSCKASGYTFTNHYMHWVRQAPGQGLEWMGIINPISGSTSNAQKFQGRVTMTRDTSTSTVYMELSSLRSEDTAVYYCARDIVDAFDFWGQGTMVTVSSASTKGPSVFPLAPCSRSTSESTAALGCLVKDYFPEPVTVSWNSGALTSGVHTFPAVLQSSGLYSLSSVVTVPSSNFGTQTYTCNVDHKPSNTKVDKTVERKCCVECPPCPAPPAAAPSVFLFPPKPKDTLMISRTPEVTCVVVDVSHEDPEVQFNWYVDGVEVHNAKTKPREEQFNSTFRVVSVLTVVHQDWLNGKEYKCKVSNKGLPASIEKTISKTKGQPREPQVYTLPPSREEMTKNQVSLTCLVKGFYPSDISVEWESNGQPENNYKTTPPMLDSDGSFFLYSKLTVDKSRWQQGNVFSCSVMHEALHAHYTQKSLSLSPGK
chain 2: not shown
- Kd [1]: 129 nM
- Kd [2]: 247 nM

B2: antibody A_G2AAAS_QL (antibody)
chain 1: B1 chain 1 with T246Q, M424L, A430N
chain 2: not shown
- Kd [1]: 69 nM
- Kd [2]: 213 nM

B3: antibody D105E (antibody, human IgG1, V domains shown)
VH: QVQLVQSGAEVKKPGASVKVSCKASGYTFTNHYMHWVRQAPGQGLEWMGIINPISGSTSNAQKFQGRVTMTRDTSTSTVYMELSSLRSEDTAVYYCARDIVDAFEFWGQGTMVTVSS
VL: AIQLTQSPSSLSASVGDRVTITCRASQGISSALVWYQQKPGKAPKLLIYDASSLESGVPSRFSGSGSGTDFTLTISSLQPEDFATYYCQQFNDYFTFGPGTKVDIK
notes: also called modified antibody D105
- Kd [3]: 0.017 nM

B4: antibody A_A (antibody, human IgG1, name in EU numbering)
heavy: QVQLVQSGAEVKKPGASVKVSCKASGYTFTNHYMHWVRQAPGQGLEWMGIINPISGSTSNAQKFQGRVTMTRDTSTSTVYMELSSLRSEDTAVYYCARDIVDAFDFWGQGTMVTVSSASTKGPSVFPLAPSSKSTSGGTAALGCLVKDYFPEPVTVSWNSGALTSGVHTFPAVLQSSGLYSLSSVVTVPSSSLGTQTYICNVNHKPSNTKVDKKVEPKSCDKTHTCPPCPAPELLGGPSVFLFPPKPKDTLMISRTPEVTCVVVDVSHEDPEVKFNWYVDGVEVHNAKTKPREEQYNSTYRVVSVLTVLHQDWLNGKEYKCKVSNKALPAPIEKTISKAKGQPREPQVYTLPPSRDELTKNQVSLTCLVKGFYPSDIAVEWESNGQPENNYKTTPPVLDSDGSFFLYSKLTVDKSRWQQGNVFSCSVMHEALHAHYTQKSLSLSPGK
light: B3 VL
notes: not shown: human kappa chain constant region; copies: 2 + 2
- Kd [1]: 155 nM
- Kd [2]: 308 nM

B5: antibody A_G2 (antibody, human IgG2)
heavy: B1 chain 1 with A231V, A233G, S327P, S374A, A430N
light: B3 VL
notes: domain: CH; CH of antibody A replaced by a CH of human IgG2; also called A2_G2; not shown: human kappa chain constant region; copies: 2 + 2
- Kd [1]: 233 nM
- Kd [2]: 624 nM

B7: antibody A_P (antibody, human IgG1, name in EU numbering)
heavy: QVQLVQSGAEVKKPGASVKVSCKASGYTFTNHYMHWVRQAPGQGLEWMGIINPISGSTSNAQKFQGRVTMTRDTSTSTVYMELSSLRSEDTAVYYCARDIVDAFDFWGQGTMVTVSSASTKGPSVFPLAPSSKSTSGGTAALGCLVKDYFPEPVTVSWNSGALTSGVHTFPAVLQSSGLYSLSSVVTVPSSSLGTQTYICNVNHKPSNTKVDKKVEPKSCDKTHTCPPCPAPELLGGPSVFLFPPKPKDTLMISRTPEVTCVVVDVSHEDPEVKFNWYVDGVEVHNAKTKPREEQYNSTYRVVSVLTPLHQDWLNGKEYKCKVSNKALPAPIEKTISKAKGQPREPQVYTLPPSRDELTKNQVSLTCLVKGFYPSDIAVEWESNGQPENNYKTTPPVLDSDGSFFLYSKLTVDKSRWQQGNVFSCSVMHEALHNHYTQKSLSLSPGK
light: B3 VL
notes: positions are EU index; not shown: human kappa chain constant region; copies: 2 + 2
- Kd [1]: 60.2 nM
- Kd [2]: 183 nM

B8: antibody A_G2_YTE (antibody)
heavy: B1 chain 1 with A231V, A233G, M248Y, S250T, T252E, S327P, S374A, A430N
light: B3 VL
notes: as for B4
- Kd [1]: 39.1 nM
- Kd [2]: 186 nM

B9: antibody D105F (antibody, human IgG1, V domains shown)
VH: B3 VH with E105F
VL: B3 VL
notes: as for B3
- Kd [3]: 0.178 nM
- FGF23 neutralizing activity IC50 (luciferase promoter assay) [4]: > 0.1 µg/mL

B12: antibody A_YTE (antibody, IgG1)
heavy: QVQLVQSGAEVKKPGASVKVSCKASGYTFTNHYMHWVRQAPGQGLEWMGIINPISGSTSNAQKFQGRVTMTRDTSTSTVYMELSSLRSEDTAVYYCARDIVDAFDFWGQGTMVTVSSASTKGPSVFPLAPSSKSTSGGTAALGCLVKDYFPEPVTVSWNSGALTSGVHTFPAVLQSSGLYSLSSVVTVPSSSLGTQTYICNVNHKPSNTKVDKKVEPKSCDKTHTCPPCPAPELLGGPSVFLFPPKPKDTLYITREPEVTCVVVDVSHEDPEVKFNWYVDGVEVHNAKTKPREEQYNSTYRVVSVLTVLHQDWLNGKEYKCKVSNKALPAPIEKTISKAKGQPREPQVYTLPPSRDELTKNQVSLTCLVKGFYPSDIAVEWESNGQPENNYKTTPPVLDSDGSFFLYSKLTVDKSRWQQGNVFSCSVMHEALHNHYTQKSLSLSPGK
light: B3 VL
notes: IgG1 CH with M252Y/S254T/T256E (EU index); not shown: human kappa chain constant region; copies: 2 + 2
- Kd [1]: 115 nM
- Kd [2]: 159 nM

B14: antibody A_G2_P (antibody, human IgG2, name in EU numbering)
heavy: B1 chain 1 with A231V, A233G, V304P, S327P, A430N
light: B3 VL
notes: domain: CH; Human IgG2 CH with modification (10-4), EU index; not shown: human kappa chain constant region; copies: 2 + 2
- Kd [1]: 78.2 nM
- Kd [2]: 234 nM

B24: antibody A_G2_A (antibody, human IgG2, name in EU numbering)
heavy: B1 chain 1 with A231V, A233G, S327P
light: B3 VL
notes: domain: CH; Human IgG2 CH with modification (10-3), EU index; not shown: human kappa chain constant region; copies: 2 + 2
- Kd [1]: 133 nM
- Kd [2]: 286 nM

Continued, values first:

- Kd [3]: 0.143 nM
- FGF23 neutralizing activity IC50 (luciferase promoter assay) [4]: 0.0467 µg/mL
B6: antibody D105H (antibody, human IgG1, V domains shown)
VH: B3 VH with E105H
VL: B3 VL
notes: as for B3

- Kd [3]: 0.252 nM
- FGF23 neutralizing activity IC50 (luciferase promoter assay) [4]: > 0.1 µg/mL
B10: antibody D105Q (antibody, human IgG1, V domains shown)
VH: B3 VH with E105Q
VL: B3 VL
notes: as for B3

- Kd [3]: 0.046 nM
- FGF23 neutralizing activity IC50 (luciferase promoter assay) [4]: 0.014 µg/mL
B11: antibody D105N (antibody, human IgG1, V domains shown)
VH: B3 VH with E105N
VL: B3 VL
notes: as for B3

- Kd [3]: 0.106 nM
- FGF23 neutralizing activity IC50 (luciferase promoter assay) [4]: 0.0278 µg/mL
B13: antibody D105S (antibody, human IgG1, V domains shown)
VH: B3 VH with E105S
VL: B3 VL
notes: as for B3

- Kd [3]: 0.201 nM
- FGF23 neutralizing activity IC50 (luciferase promoter assay) [4]: 0.0992 µg/mL
B15: antibody D105P (antibody, human IgG1, V domains shown)
VH: B3 VH with E105P
VL: B3 VL
notes: as for B3

- Kd [3]: 0.0639 nM
- FGF23 neutralizing activity IC50 (luciferase promoter assay) [4]: 0.0256 µg/mL
B16: antibody D105L (antibody, human IgG1, V domains shown)
VH: B3 VH with E105L
VL: B3 VL
notes: as for B3

- Kd [3]: 0.671 nM
- FGF23 neutralizing activity IC50 (luciferase promoter assay) [4]: > 0.1 µg/mL
B17: antibody D105M (antibody, human IgG1, V domains shown)
VH: B3 VH with E105M
VL: B3 VL
notes: as for B3

- Kd [3]: 0.149 nM
- FGF23 neutralizing activity IC50 (luciferase promoter assay) [4]: 0.0779 µg/mL
B18: antibody D105W (antibody, human IgG1, V domains shown)
VH: B3 VH with E105W
VL: B3 VL
notes: as for B3

- Kd [3]: 1.91 nM
- FGF23 neutralizing activity IC50 (luciferase promoter assay) [4]: > 0.1 µg/mL
B19: antibody D105R (antibody, human IgG1, V domains shown)
VH: B3 VH with E105R
VL: B3 VL
notes: as for B3

- Kd [3]: 0.262 nM
- FGF23 neutralizing activity IC50 (luciferase promoter assay) [4]: 0.0457 µg/mL
B20: antibody D105K (antibody, human IgG1, V domains shown)
VH: B3 VH with E105K
VL: B3 VL
notes: as for B3

- Kd [3]: 0.102 nM
- FGF23 neutralizing activity IC50 (luciferase promoter assay) [4]: 0.0216 µg/mL
B21: antibody D105Y (antibody, human IgG1, V domains shown)
VH: B3 VH with E105Y
VL: B3 VL
notes: as for B3

- Kd [3]: 0.0734 nM
- FGF23 neutralizing activity IC50 (luciferase promoter assay) [4]: 0.0237 µg/mL
B22: antibody D105I (antibody, human IgG1, V domains shown)
VH: B3 VH with E105I
VL: B3 VL
notes: as for B3

- Kd [3]: 0.263 nM
- FGF23 neutralizing activity IC50 (luciferase promoter assay) [4]: > 0.1 µg/mL
B23: antibody D105V (antibody, human IgG1, V domains shown)
VH: B3 VH with E105V
VL: B3 VL
notes: as for B3

- Kd [3]: 0.0975 nM
- FGF23 neutralizing activity IC50 (luciferase promoter assay) [4]: 0.0331 µg/mL
B25: antibody D105G (antibody, human IgG1, V domains shown)
VH: B3 VH with E105G
VL: B3 VL
notes: as for B3

Reference: patent US20250163140A1 (Kyowa Kirin, published 2025)
